Where two headings read alike, the source gives them in different places. Values belong to the binder of their own block, whether it stands above or below them.
What was measured:
[1] = target: T1, rhNav1.7α + β1-β2-β3 (rhesus monkey); test: competition FACS, CHO FlpIn cells, vs EC40 of F0103275B05(N93R)
T1 construct: also called rhNav1.7-beta1-beta2-beta3; rhesus Nav1.7α

[2] = target: T2, huNav1.7α + β1-β2-β3 (human, UniProt Q15858 1-1988; A5A6L6 19-218; O60939 30-215; Q2KI11 23-215); test: competition FACS, CHO FlpIn cells, vs EC25 of F0103275B05(N93R)
T2 construct: Cell line (CHO FlpIn, HEK FlpIn, transient HEK293T) is named under assay; also called huNav1.7-beta1-beta2-beta3; human Nav1.7α with Navβ1, Navβ2 and Navβ3

[3] = target: T3, huNav1.7α(R277Q) + β1-β2-β3 (human); test: binding FACS, CHO FlpIn cells
T3 construct: polyprotein as encoded; the entry already carries R277Q; also called huNav1.7(R277Q)-beta1-beta2-beta3
Experimental: (§1) Binding of the ISVDs to cell-expressed Nav1.7α was detected via murine anti-Flag (Sigma, catalog #F1804). Briefly, cells were resuspended in FACS buffer (PBS, 10% FBS, NaN₃) and transferred to a 96-well V-bottom plate at 1×10^5 cells/well. Purified FLAG3-tagged ISVD was diluted in FACS buffer and added to the cells for 30 minutes at 4° C. […] Prior to the read-out, the samples were resuspended in 1 μg/mL propidium iodide (Sigma, catalog #P4170) to exclude dead cells. Between each step, the cells were centrifuged for 5 minutes at 200 grams and washed with 100 μL/well FACS buffer.
(§2) Based on the huNav1.7α model (as described above) the following huNav1.7α-rhNav1.7α polymorphisms can be allocated to the extracellular part of DI: N146S, F276V, R277Q, E281V and V331M. The first of the residues is in DI S1-S2 whereas the latter four residues belong to DI S5-S6. FACS binding studies (as described above) were performed to stable CHO FlpIn cell lines expressing different variants of huNav1.7+β1−β2−β3 each including one of the four possible extracellular huNav1.7α-rhNav1.7α polymorphisms in the DI S5-S6 region: F276V, R277Q, E281V and V331M (Table 23 and FIGS. 22A-22F). Individual polymorphisms were each sufficient to abolish the binding of F0103265B04, F0103362B08, F010301080, and F0103262B06 to huNav1.7α, recapitulating the absence of binding on rhNav1.7α. F0103262CO2, F0103275B05 and F0103387G05 are more subtly affected in terms of EC50 or Bmax by some of the polymorphisms. None of the individual DI S5-S6 polymorphisms by themselves appear to have an impact on the binding of the two rhNav1.7α cross-reactive ISVDs F0103387G04 and F0103464B09. In addition, no effect on binding of the two ISVDs was observed (data not shown) for the three extracellular DIV VSD huNav1.7α-rhNav1.7α polymorphisms Q1530P, H1531Y and E1534D (FIG. 22G).

[4] = target: T4, huNav1.7α(F276V) + β1-β2-β3 (human, UniProt Q15858 1-1988; A5A6L6 19-218; O60939 30-215; Q2KI11 23-215); test: binding FACS, CHO FlpIn cells
T4 construct: polyprotein as encoded, P2A sites liberate the subunits; the entry already carries F276V; also called huNav1.7(F276V)-beta1-beta2-beta3
Experimental: as §1, §2

[5] = target: T5, huNav1.7α(E281V) + β1-β2-β3 (human); test: binding FACS, CHO FlpIn cells
T5 construct: polyprotein as encoded; the entry already carries E281V; also called huNav1.7(E281V)-beta1-beta2-beta3
Experimental: as §1, §2

[6] = target: T2, huNav1.7α + β1-β2-β3; test: binding FACS, CHO FlpIn cells
Experimental: as §1, §2

[7] = target: T6, huNav1.7α(V331M) + β1-β2-β3 (human); test: binding FACS, CHO FlpIn cells
T6 construct: polyprotein as encoded; the entry already carries V331M; also called huNav1.7(V331M)-beta1-beta2-beta3
Experimental: as §1, §2

[8] = target: T2, huNav1.7α + β1-β2-β3; test: competition FACS, HEK FlpIn cells, vs EC30 of CMYC3-F0103265B04
Experimental: Competition FACS assays were performed with CMYC3-tagged ISVD F0103265B04 or F0103275B05(N93R) affinity maturation variant on a HEK FlpIn huNav1.7α+β1−β2−β3 transgenic cell line. Briefly, cells were resuspended in FACS buffer (PBS, 2% FBS, 0.05% NaN₃) and 1×10⁵ cells/well were transferred to 96-well V-bottom plates. Cells were subsequently resuspended in a 100 μL mixture of purified ISVD (dilution series) and CMYC3-tagged ISVD F0103265B04 (at a concentration equivalent to EC30) followed by incubation for 1.5 hours at 4° C. […] Between each step, the cells were centrifuged for 5 minutes at 200 g and washed with 100 μL/well FACS buffer. Prior to the read-out, the samples were resuspended in 5 nM TOPRO3 (Molecular probes, catalog #T3605) to exclude dead cells. F0103262CO2, F0103262B06, F0103265A11, F0103265B04, F0103275B05, F0103362B08, and F0103387G04 all compete with F0103265B04 for binding to huNav1.7α, in contrast to an irrelevant control ISVD (IRR) (see Table 21 and FIG. 15A, FIG. 15B, FIG. 15C, and FIG. 15D).

[9] = target: rhNav1.7α + β1-β2-β3 (rhesus monkey); test: cell-based or functional assay
[10] = target: huNav1.7α + β1 (human); test: cell-based or functional assay
[11] = target: T7, rhNav1.7α + β1-β2-β3 (rhesus monkey); test: binding FACS, CHO FlpIn
T7 construct: also called rhNav1.7-beta1-beta2-beta3; rhNav1.7-β1-β2-β3
Experimental: as §1

[12] = target: T8, huNav1.7α + β1-β2-β3 (human, UniProt Q15858 1-1988; A5A6L6 19-218; O60939 30-215; Q2KI11 23-215); test: binding FACS, CHO FlpIn
T8 construct: also called huNav1.7-beta1-beta2-beta3; huNav1.7-β1-β2-β3
Experimental: as §1

[13] = target: T9, muNav1.7α (murine, UniProt Q62205 1-1984); test: binding FACS, HEK JmpIn
T9 construct: HEK JmpIn cells; also called murine Nav1.7α
Experimental: as §1

[14] = target: T9, muNav1.7α; test: binding FACS, HEK JmpIn; remark: listed apart in the source
[15] = target: T7, rhNav1.7α + β1-β2-β3; test: binding FACS, CHO FlpIn; remark: listed apart in the source
How it was run: (§3)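 Assessment used purified FLAG3-tagged ISVD incubated on cells for 30 minutes at 4° C in PBS containing 10% FBS and NaN₃, with cells washed between steps. Propidium iodide (1 μg/mL) staining removed dead cells from analysis.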

[16] = target: T8, huNav1.7α + β1-β2-β3; test: binding FACS, CHO FlpIn; remark: listed apart in the source
How it was run: as §3

[17] = target: T1, rhNav1.7α + β1-β2-β3; test: binding FACS, CHO FlpIn cells
How it was run: as §3

[18] = target: T2, huNav1.7α + β1-β2-β3; test: binding FACS, CHO FlpIn cells; remark: listed apart in the source
How it was run: as §3

[19] = target: T1, rhNav1.7α + β1-β2-β3; test: binding FACS, CHO FlpIn cells; remark: listed apart in the source
Experimental: as §1, §2

[20] = target: T7, rhNav1.7α + β1-β2-β3; test: cell-based or functional assay; remark: listed apart in the source
[21] = target: huNav1.7α + β1 (human); test: cell-based or functional assay; remark: listed apart in the source
[22] = target: T10, ratNav1.7α (rat, UniProt O08562 1-1984); test: cell-based or functional assay
[23] = target: T7, rhNav1.7α + β1-β2-β3; test: cell-based or functional assay; remark: listed apart in the source
[24] = target: huNav1.7α + β1 (human); test: cell-based or functional assay; remark: listed apart in the source
[25] = target: T10, ratNav1.7α; test: cell-based or functional assay; remark: listed apart in the source
[26] = target: T7, rhNav1.7α + β1-β2-β3; test: cell-based or functional assay; remark: listed apart in the source
[27] = target: huNav1.7α + β1 (human); test: cell-based or functional assay; remark: listed apart in the source
[28] = target: T11, huNav1.7α (human, UniProt Q15858 1-1988); test: binding FACS, HEK
T11 construct: HEK cells expressing the α subunit without β subunits; also called huNav1.7 (alpha-subunit); Human Nav1.7α

[29] = target: T12, huNav1.7α + β1 (human); test: binding FACS, HEK
T12 construct: HEK293 cells; also called huNav1.7-beta1; huNav1.7-β1

[30] = target: T11, huNav1.7α; test: cell-based or functional assay

T10 sequence (O08562 whole entry): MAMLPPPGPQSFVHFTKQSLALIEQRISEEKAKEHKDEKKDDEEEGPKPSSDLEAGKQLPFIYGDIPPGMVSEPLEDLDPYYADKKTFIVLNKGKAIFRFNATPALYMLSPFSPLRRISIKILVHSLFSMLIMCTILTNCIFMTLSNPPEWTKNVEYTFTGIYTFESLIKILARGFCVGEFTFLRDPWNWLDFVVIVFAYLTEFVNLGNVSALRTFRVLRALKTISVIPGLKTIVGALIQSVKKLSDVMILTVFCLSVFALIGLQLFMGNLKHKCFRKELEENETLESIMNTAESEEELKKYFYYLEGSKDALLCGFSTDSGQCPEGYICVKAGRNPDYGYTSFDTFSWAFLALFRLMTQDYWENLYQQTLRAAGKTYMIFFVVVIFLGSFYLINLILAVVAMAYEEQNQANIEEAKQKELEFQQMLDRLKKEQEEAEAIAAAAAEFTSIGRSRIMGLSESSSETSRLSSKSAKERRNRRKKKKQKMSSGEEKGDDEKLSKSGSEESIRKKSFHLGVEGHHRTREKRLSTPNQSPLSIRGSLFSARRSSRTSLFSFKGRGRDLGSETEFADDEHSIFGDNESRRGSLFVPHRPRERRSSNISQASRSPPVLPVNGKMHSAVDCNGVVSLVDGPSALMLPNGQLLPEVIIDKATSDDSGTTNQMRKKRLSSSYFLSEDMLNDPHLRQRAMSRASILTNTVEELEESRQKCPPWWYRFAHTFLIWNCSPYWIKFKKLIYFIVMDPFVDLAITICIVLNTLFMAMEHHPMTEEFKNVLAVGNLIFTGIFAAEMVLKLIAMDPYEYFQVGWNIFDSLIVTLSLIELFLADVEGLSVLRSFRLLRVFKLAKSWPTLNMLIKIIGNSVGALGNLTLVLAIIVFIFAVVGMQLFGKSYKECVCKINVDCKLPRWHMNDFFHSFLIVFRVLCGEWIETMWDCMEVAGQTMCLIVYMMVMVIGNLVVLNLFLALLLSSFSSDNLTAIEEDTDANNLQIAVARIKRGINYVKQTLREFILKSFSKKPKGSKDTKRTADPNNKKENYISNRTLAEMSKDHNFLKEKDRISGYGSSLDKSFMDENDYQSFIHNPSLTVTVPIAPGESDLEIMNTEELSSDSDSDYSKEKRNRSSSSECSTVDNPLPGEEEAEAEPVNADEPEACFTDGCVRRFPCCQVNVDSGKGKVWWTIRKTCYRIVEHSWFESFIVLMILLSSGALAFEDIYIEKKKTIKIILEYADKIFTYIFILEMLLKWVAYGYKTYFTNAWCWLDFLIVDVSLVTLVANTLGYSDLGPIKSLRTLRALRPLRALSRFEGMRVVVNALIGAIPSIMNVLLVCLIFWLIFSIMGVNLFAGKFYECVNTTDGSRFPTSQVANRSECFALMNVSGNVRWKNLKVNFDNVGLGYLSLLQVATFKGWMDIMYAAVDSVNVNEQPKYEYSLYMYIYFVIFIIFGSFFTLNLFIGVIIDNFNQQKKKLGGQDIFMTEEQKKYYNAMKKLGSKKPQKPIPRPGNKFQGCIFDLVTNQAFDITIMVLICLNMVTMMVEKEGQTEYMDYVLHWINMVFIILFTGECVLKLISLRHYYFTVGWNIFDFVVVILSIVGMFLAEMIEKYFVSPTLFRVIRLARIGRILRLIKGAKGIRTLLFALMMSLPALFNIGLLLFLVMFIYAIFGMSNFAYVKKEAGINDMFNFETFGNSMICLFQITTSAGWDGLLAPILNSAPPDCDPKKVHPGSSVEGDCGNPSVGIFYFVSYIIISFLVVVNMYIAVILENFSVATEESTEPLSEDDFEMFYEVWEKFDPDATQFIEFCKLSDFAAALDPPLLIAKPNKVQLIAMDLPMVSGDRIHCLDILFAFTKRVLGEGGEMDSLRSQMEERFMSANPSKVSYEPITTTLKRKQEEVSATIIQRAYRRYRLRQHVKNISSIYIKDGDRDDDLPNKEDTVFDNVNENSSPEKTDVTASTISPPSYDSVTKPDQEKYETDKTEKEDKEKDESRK

B1: F0103387G05 (VHH)
VHH: EVQLVESGGGLVQAGGSLRLSCDASGRILRIGYMRWHRQGAGKQREFVARITDDSATDYADSVKGRFTISRDNAKNTVYLQMNNLNPEDTAVYYCEALVTASVRGGSIHSGTYWGRGTLVTVSS
notes: entry includes the FLAG-HIS6 tag; also called F0103387G05 (parental)-FLAG-HIS6
- binding result [1]: no binding
- IC50 [2]: 10 nM
- EC50 [3]: 2.2 nM
- EC50 [4]: 2.4 nM
- EC50 [5]: 2.3 nM
- EC50 [6]: 2.6 nM
- EC50 [7]: 5.9 nM
- IC50 [8]: 9.4 nM

B2: F0103464B09 (parental)-FLAG-HIS6 (VHH)
VHH: EVQLVESGGGLVQPGGSLRLSCATTSRAFIRDVFTGWYRRVPGKERELVARIYNGGNTNYADFAKGRFSISRDNAKKMVTLRMSNLKPEDTGVYYCLFSGTINTGREYRSGDYWGQGTLVTVSS
notes: also called F010346B09
- Qpatch IC50 [9]: 166 nM
- Qpatch IC50 [10]: 7 nM
- EC50 [11]: 18 nM
- EC50 [12]: 5.2 nM
- Bmax [13]: 74%
- EC50 [13]: 6.3 nM
- EC50 [14]: 6.3 nM
- Bmax [15]: 33%
- EC50 [15]: 18 nM
- Bmax [16]: 99%
- EC50 [16]: 5.2 nM

B4: 69AVB (Fc fusion)
chain: EVQLVESGGGLAQPGGSLRLSCAASGPVFNINRMAWYRRAPGKQRELVAYVTPTGDISYTDSVKGRFTISRDGSKRWSLQMNSLTPEDTAVYYCRALLQPDSYSNTRTYWGQGTLVTVSS
notes: also called F010301656-5GS-Fc; F10301656* (ISVD with human IgG1 Fc); not shown: 5GS linker; human IgG1 Fc
- QPatch electrophysiology IC50 [M], HEK cells [20]: 8e-09 M
- Human SA ratio of QPatch IC50 [21]: 2
- QPatch electrophysiology IC50 [M], HEK cells [21]: 1.3e-08 M
- QPatch electrophysiology IC50 [M], HEK cells, + 10 µM human SA [21]: 2.6e-08 M
- QPatch electrophysiology IC50 [M], HEK cells [22]: 2.1e-08 M
- Qpatch IC50 [23]: 8 nM
- Qpatch IC50 [24]: 13 nM
- Qpatch IC50 [25]: 21 nM
- Qpatch IC50 [M], HEK cells [26]: 8e-09 M
- Qpatch IC50 [M], HEK cells [27]: 1.3e-08 M
- EC50 [28]: 11 nM
- EC50 [29]: 9 nM

Second part, the binder after the results:

- Bmax [17]: 54%
- EC50 [17]: 33 nM
- EC50 [18]: 5.4 nM
- IC50 [1]: 79 nM
- IC50 [2]: 12 nM
- EC50 [19]: 31 nM
- EC50 [3]: 2.6 nM
- EC50 [4]: 2.7 nM
- EC50 [5]: 2.7 nM
- EC50 [6]: 3.4 nM
- EC50 [7]: 1.6 nM
B3: F0103464B09 (VHH)
VHH: EVQLVESGGGLVQPGGSLRLSCATTSRAFIRDVFTGWYRRVPGKERELVARIYNGGNTNYADFAKGRFSISRDNAKKMVTLRMSNLKPEDTGVYYCLFSGTINTGREYRSGDYWGQGTLVTVSS
notes: entry includes the FLAG-HIS6 tag; also called F0103464B09 (parental)-FLAG-HIS6; F103464B09

- Qpatch IC50 [10]: 120 nM
- Qpatch IC50 [M], HEK cells [30]: 1.2e-07 M
B5: F0103265B04-FLAG3-HIS6 (VHH)
VHH: EVQLVESGGGLVQPGGSLRLSCAAPSFIFSNNYMEWYRQAPGKQRDWVARITGRGNTNYLDSVKGRFTISRDDAKNTVYLEIDSLKPEDTAVYYCSALWYGGRAWGKGTLVTVSS

From patent US20240002497A1 (Merck Sharp & Dohme, published 2024)
